A short description of the data set: soluble on expression in E. coli; label from the status in PepcDB or PDB records.
For “MGSDKIHHHHHHMVETLAGLFDFEMDPQSGVALTRQLRDQLRRAIAAGSLASGRRLPSSRALALHLRVSRNTVCAAIEQLAMEGYLDVSRGRRPVVAPMPSAGLVAIGSDRPVSDGRSGMSQWAQRIDRSDWPFISEGRPTPFAPCVADARAFPHAIWGRCLRTATRYAVARTSTACNRPGLRRALLHHLVEYRGVNADAHQVFLMPTAQAAIALVARVLLDPGDLAWVESPGYGGARAAFEAAGATVQGIALDQSGMAFETSTDTPRLIFVTPAHQHPTGLLMPPARRQALLRFAARVGARIIEDDYDSEFHYEGRPVAALQGADDADSVFYVGTFSKSLHADIRVGYVVVPGHFVDVFAKAQRHTGQIVGATLQDALAEFIDDGHYAAHIRKTTRLYHARRDYLCDALKAVGSELTVSPPDGGMQVVARLGPLRDDREICRRLAEAGVTARPLSPHYCAQTGAQGLFLGFAAWNECEIDAGVRILARVIREPEPSK”, the “soluble on expression in E. coli” value is recorded as “not soluble”.

Regarding “MENFEIWVEKYRPRTLDEVVGQDEVIQRLKGYVERKNIPHLLFSGPPGTGKTATAIALARDLFGENWRDNFIEMNASDERGIDVVRHKIKEFARTAPIGGAPFKIIFLDEADALTADAQAALRRTMEMYSKSCRFILSCNYVSRIIEPIQSRCAVFRFKPVPKEAMKKRLLEICEKEGVKITEDGLEALIYISGGDFRKAINALQGAAAIGEVVDADTIYQITATARPEEMTELIQTALKGNFMEARELLDRLMVEYGMSGEDIVAQLFREIISMPIKDSLKVQLIDKLGEVDFRLTEGANERIQLDAYLAYLSTLAKK”, the “soluble on expression in E. coli” value is listed as “soluble”.

In the case of “MSLSFKNNLKLLLSTQNVLIYILNSEEERLEYKIHLMIRQNIKKTIYCWNFIDGYYNNPNYLNKAIRNPLQAIEFIEQLNFPTSTIFFLKDFHVFINDISVIRKIKNLSRFLKQANSSIIISASEMQVPSLLKDFITVLEFPLPNYEEINLELHRLFKIMNVDSSIYSEYFHDLTLAYRGFSIEKIRISIAKLLTSNLSSTHLIKNILYEKRQLIEQTDEGHHHHHH”, the “soluble on expression in E. coli” value is reported as “not soluble”.

With “MGTLSVNQNKLQKRLRRLAGEAVADFNMIEEGDKVMVCLSGGKDSYTLLDVLMHFQKVAPIRFDIVAVNMDQKQPGFPEHVLPAYLKELGVEYHIVEKDTHSVVKELIPEGKTTCSLCSRLRRGTLYTFADQIGATKMALGHHRDDIIETFFLNMFFNGALKAMPPKLRADDGRNVVIRPLAYCHEKDIQAYSDLKQFPIIPCNL”, the “soluble on expression in E. coli” value is listed as “not soluble”.

Take “MVDRFGDVLREWRQLRRMSQMDLGLSAGVSPRHISFLESGRALPSRGMVLRLCDELEVPGGARNRWLTSAGLAPAYHSRNGDAPEMAPLTQAVDWMLSRHAPYPAMAVDRHWRLKTMNRPARAMFAATGLGAGDGLIDALLDNPALAAALENRDEVERLSLTRLRTELAHFGRDPVLEQAVARLAERVARQPGAADAPMPAVIPARYRLGEAVLSFFTTITQFGATGDIAMSELRIEMFFPADDATRQMVEALWGNATPGN”: the “soluble on expression in E. coli” value is “not soluble”.

Turning to “MNNREIVQKLWNLCNVLRDDGITYHQYVTELTYLLFLKMMKETGQEYIIPEPYRWDVLAKKDGIELKTYYQQLLMALGQEENELLRQIYTDATSNIREPKNLEKIIRTIDALDWYNAKEEGLGALYEGLLEKNASELKSGAGQYFTPRVLIDVIVELVDPKPGERCHDPAAGTFGFMIAASRHVRAKTDDYFDLSEEEIRFQKYEAFSGVELVRDTHRLAVMNALLHDVHGDILLGDTLSPLGEQLKGYDVILTNPPFGTKKGGERATRTDFTFMTSNKQLNFLQHIYRALRPNGKARAAVVVPDNVLFEGGVGADIRRDLMDKCNVHTILRLPTGIFYAQGVKTNVLFFTRGETDTGNTKEVWVYDLRTNMPSFGKRNPLTKDHFAGFMKAYTAEDRHQVDDERWNVFTRDDIAKKGDSLDIGLIADESLSVYDNLPDPIDSAEEAVEKLELAISLLNEVIAELKAAEHPPRYEPAKTEMLHVAERLEVSER”, the “soluble on expression in E. coli” value is reported as “not soluble”.

“MDGHAPTFTSIQDIQGEGASSPFIDGYPYITTEEHFVTGVVSAVTSGLTKGFYLQAIENDNNDKTSEGLFIHTNAADTELKPGDVVCVKGKVQEYYNNTQLSSDATSYVKTGTSDIPLVTPLVIKEGETLRDALERHEGMQVTLNSASDLFVTRNFSYDYDSKRNNMMLSHQAPLFKPTQLHAADSAEAVALAKQNAENRVFLESDAKAPNGKIPYYPEFGQDLDQDGSSEQHIRLGSRVEGLQGVVNYSYNEYRLIATNDVNNTNFVAAGDGFDVERKAAPAIAESDLRVASFNVLNYFTSVALEHHHHHH”: the “soluble on expression in E. coli” value was “not soluble”.

For “MHQVISATTNPAKIQAILQAFEEIFGEGSCHITPVAVESGVPEQPFGSEETRAGARNRVDNARRLHPQADFWVAIEAGIDDDATFSWVVIDNGVQRGEARSATLPLPAVILDRVRQGEALGPVMSQYTGIDEIGRKEGAIGVFTAGKLTRSSVYYQAVILALSPFHNAVYR”, the “soluble on expression in E. coli” value is “soluble”.

On to “KLGAPVKKAILEALSERDQTADICKDSKGNIEPDTQLRDTELVAFPDHLTLPLPVNYDKEPDLSKLLPLVKAHCEAYLKAEVLPHVADAWIDYSKTKVGYEIPINRHFYIYEPPRPLEEIKAEIVQLEQEIMQMLGGLSA”, for which the “soluble on expression in E. coli” value is recorded as “not soluble”.

Regarding “SNAMFKEAINNYLHTHGYESIDLKAVLFDMDGVLFDSMPNHAESWHKIMKRFGFGLSREEAYMHEGRTGASTINIVSRRERGHDATEEEIKAIYQAKTEEFNKCPKAERMPGALEVLTKIKSEGLTPMVVTGSGQTSLLDRLNHNFPGIFQANLMVTAFDVKYGKPNPEPYLMALKKGGFKPNEALVIENAPLGVQAGVAAGIFTIAVNTGPLHDNVLLNEGANLLFHSMPDFNKNWETLQSALKQD”, the “soluble on expression in E. coli” value was “soluble”.

As for “MGSDKIHHHHHHMPRHVSNLELHNQIQEAALQSHLVPLGSIQLTPHFIPVEGLRRSIQRALKNCQPQDFLYCNKQGHEQLRKALSDHWREDGIYIAPEDIFITNGCMPALSLVIQKLTEVGDSILIPTPTYNGHLQLLASLKRQIVEIPADHRGIDLERLESLMQQGLAKVCLMTANYQNPLGYCFSNAEKQKIAELAAEYQCFIIEDDIFGECGYSSERPLPIRYWDREGYVVWCGSVSKSLSSAYRVGWFCLTTKLEHLKLELLVSNIGVNTPLQLGLADFIYSRGYREHLEQLRPNLMRQVEEYRSCILRAFEGIPIALSQPEGGYALWIQLPKSVDSLALYYTAQAQGITVVPGYVFGEDERYRHFIRLNAGHELTADVRQAIMSLADWSRQQMQTVS”, the “soluble on expression in E. coli” value is reported as “not soluble”.

With “ANFNVPKLGVFPVAAVFDIDNVPEDSSATGSRWLPSIYQGGNYWGGGPQALHAQVSNFDSSNRLPYNPRTENNPAGNCAFAFNPFGQYISNISSAQSVHRRIYGIDLNDEPLFSPNAASITNGGNPTMSQDTGYHNIGPINTAYKAEIFRPVNPLPMSDTAPDPETLEPGQTEPLIKSDGVYSNSGIASFIFDRPVTEPNPNWPPLPPPVIPIIYPTPALGIGAAAAYGFGYQVTVYRWEEIPVEFIADPETCPAQPTTDKVIIRTTDLNPEGSPCAYEAGIILVRQTSNPMNAVAGRLVPYVEDIAVDIFLTGKFFTLNPPLRITNNYFADDEVKENTVTIGNYTTTLSSAYYAVYKTDGYGGATCFIASGGAGISALVQLQDNSVLDVLYYSLPLSLGGSKAAIDEWVANNCGLFPMSGGLDKTTLLEIPRRQLEAINPQDGPGQYDLFILDDSGAYASFSSFIGYPEAAYYVAGAATFMDVENPDEIIFILRNGAGWYACEIGDALKIADDEFDSVDYFAYRGGVMFIGSARYTEGGDPLPIKYRAIIPGLP”, the “soluble on expression in E. coli” value is listed as “soluble”.

In the case of “MLILSTEKEPNFEYEEITRSFLSNMLAFTRGHFTGDISHFSPIVLAEMEKDPNWLEEAAGGMQGVIVQSLLEDENFSSVEQLKGELARLIRLYFALAKDNLTENQESLYVDLFDKFTFLLLCSDEFIMYLDSQPKF”, the “soluble on expression in E. coli” value is listed as “soluble”.

Consider “MAHHHHHHMDHQDLKPVIWHKTEKKTKPKDIHEARKLGIDVEVEKKYFGGKNKSSKGNLIIENKAKIEQETENFKIDRVTPAFSRALQQARISKKLTQAQLARLVNESESVIKEYENGKAIPNNVIIQKLNKVLGVNLPSPKKK”, for which the “soluble on expression in E. coli” value was “soluble”.

With “GSYNKPSETVIPESVDGLQENLDVVVSLAERHYYNCDFKMCYKLTSVVMEKDPFHASCLPVHIGTLVELNKANELFYLSHKLVDLYPSNPVSWFAVGCYYLMVGHKNEHARRYLSKATTLEKTYGPAWIAYGHSFAVESEHDQAMAAYFTAAQLMKGCHLPMLYIGLEYGLTNNSKLAERFFSQALSIAPEDPFVMHEVGVVAFQNGEWKTAEKWFLDALEKIKAIGNEVTVDKWEPLLNNLGHVCRKLKKYAEALDYHRQALVLIPQNASTYSAIGYIHSLMGNFENAVDYFHTALGLRRDDTFSVTMLGHCIEMYIGDSEAYIGADIK”, the “soluble on expression in E. coli” value is on record as “soluble”.

Take “ANSVQQQLEALEKSSGGRLGVALINTADNSQILYRADERFAMCSTSKVMAAAAVLKQSESDKHLLNQRVEIKKSDLVNYNPIAEKHVNGTMTLAELGAAALQYSDNTAMNKLIAHLGGPDKVTAFARSLGDETFRLDRTAPTLNTAIPGDPRDTTTPLAMAQTLKNLTLGKALAETQRAQLVTWLKGNTTGSASIRAGLPKSWVVGDKTGSGDYGTTNDIAVIWPENHAPLVLVTYFTQPEQKAERRRDILAAAAKIVTHGF”: the “soluble on expression in E. coli” value is listed as “soluble”.

Take “MAERELYIGVMSGTSLDGVDTALVALQDDNIELLAHHDYPIPADLKQRLLNVCIGQPTTLIAMGELEHDLGHLFSDAVLALLQHSGYRAEHIRAIGCHGQTVFHQPTGTKPFTMQIGDANIIATRTGITTVADFRRKDVALGGQGAPLVPAFHRTIFHAEQSTVVVLNIGGIANISVLKPNGEVVGYDTGPGNMLMDSWCQKERNQPYDKDALWAKQGSVNAALLSHLKQDHYFALPAPKSTGRELFNLPWLETQLATFSVDATDVQRTLCEFTAQTIVEQVAPFAEGPQPQLLVCGGGAQNPLLMERLQALLPSWQVAPTTQMGVDGDNMEAMAFAWLAQRRIHGLPSNLPAVTGASRLASLGVIYYPD”: the “soluble on expression in E. coli” value is “not soluble”.

Turning to “ARDTLFVNLTDATDSQSLKLSDFGNTVRYVPLETNEVCLIGNNPHIALLEDKIVIATKDQCFLFHKQTGKYICSIGHIGDDPSGYSSTNYWIDDAGLFYFFRAPDQLLKYNQKGEMTGKIQIPHIPAAPDFFAFSDSTIIAHCNSSIGLESSNSLLFLNSFGEKLDSIPNLLKSPSIPSPDNISSLSIIKRGAGFFGNLGRRGVMIIKDKEQGELLLPLYNPSLWSSENEVRFRETFTDTIYTIKNRKLYPYMVFHTDTDHSSANPLWYSNPQSIYVAYVLENTHSVFFQYVKNKQVYNGLYNKETQQTKFAKCQQFIVDDLTSEQELKVDLSALCSYKGEYGFILEAASIPDASQKQSDNKNENIPHWMSQLDEDANPVIAIVSDK”, the “soluble on expression in E. coli” value is listed as “soluble”.

As for “GMPAPLRFSSDKPLLLLIDMQQAVDDPSWGPRNHPQAEQACAGLLQAWRARGLPLIHIRHDSVEPNSTYRPGQPGHAFKPEVEPRPGETVIAKQTNSAFIGTGLEALLRANGWLELVVAGVSTSNSVEATVRMAGNLGFAVCLAEDGCFTFDKTDWHGRRRSADEVHAMSLANLDGEYCRVCGSADILAALGNIAGAA”, the “soluble on expression in E. coli” value is given as “soluble”.

As to “MGSDKIHHHHHHARLNAFKQLTPGSDVRDWIAAAGQVGGLGAADLNFPDHFAVYDADQMGNFLGEAALTLNGIAMRYYTDPGFKLGAFTHPDAAVRQAALDVTKQGIDTCARMGGKTVTLWMGQDGFDYAFQMDYGLAWDRTVAAIADICAHDPNIDIAIEYKPNEPRAFALMPDIGTTLLACREVGAVNLGVTLDFAHVLYADEMPAHSAALIGRHSRMIGLHLNDGYGKRDDGLMVGSVHAIQTVELLVAMLRMGQTDVIYFDTFPDMGGLNPIEEARTNVAVTDRLMAVAESLMEDPALAQAIDRQDAAASHRIVARALYGS”, the “soluble on expression in E. coli” value was “not soluble”.
